Measurements: the RNAGym collection of RNA variant scans (doi:10.7554/elife.80360)

B1: Hairpin Ribozyme (parent)
chain: GUCCUCUUUCACGUGCGCGUGAAAGAGAGAAGUGAACCAGAGAAACACACGUUGUGGUAUAUUACCUGGUA

Variants of: B1
Assay: self-cleavage, relative activity (ratio to wild type); higher = more cleavage; co-transcriptional

Variant | self-cleavage
GUCCUCUUUCACGUGCGCGUGAAAGAGAGAAGUGAACCAGGGAAACACACCUUGUGGUAUAUUACCUGGUA | 0.677
GUCCUCUUUCACGUGCGCGUGAAAGAGAGAAGUGAACCAGUGAAGCACACGUUGUGGUAUAUUACCUGGUA | 0.218
GUCCUCUUUCACGUGCGCGUGAAAGAGAGAAGUGAACCAGGGAAACACACGUUGUAGUAUAUUACCUGGUA | 0.255
GUCCUCUUUCACGUGCGCGUGAAAGAGAGAAGUGAACCAGAAAAACAGACGUUGUGGUAUAUUACCUGGUA | 0.127
GUCCUCUUUCACGUGCGCGUGAAAGAGAGAAGUGAACCAGUGAAACACACGUUGUGUUAUAUUACCUGGUA | 0.493
GUCCUCUUUCACGUGCGCGUGAAAGAGAGAAGUGAACCAGAAAAACACACGUUGUGGUAUAUGACCUGGUA | 0.193
GUCCUCUUUCACGUGCGCGUGAAAGAGAGAAGUGAACCAGGGAAACACACGUUGUGGUAUAUUACAUGGUA | 0.355
GUCCUCUUUCACGUGCGCGUGAAAGAGAGAAGUGAACCAGGGAAACACACGUUGUGGUAUAUUACUUGGUA | 0.682
GUCCUCUUUCACGUGCGCGUGAAAGAGAGAAGUGAACCAGAAAAACACACGUGGUGGUAUAUUACCUGGUA | 0.237
GUCCUCUUUCACGUGCGCGUGAAAGAGAGAAGUGAACCAGAAAAACACACGUCGUGGUAUAUUACCUGGUA | 0.388
GUCCUCUUUCACGUGCGCGUGAAAGAGAGAAGUGAACCAGGGAAACACACGUUGUGGUAUAUUAUCUGGUA | 1.05
GUCCUCUUUCACGUGCGCGUGAAAGAGAGAAGUGAACCAGUGAAACACACGUUGUGGUAUAUUACCUGGUA | 1.29
GUCCUCUUUCACGUGCGCGUGAAAGAGAGAAGUGAACCAGUGAAACACACGUUUUGGUAUAUUACCUGGUA | 1.19
GUCCUCUUUCACGUGCGCGUGAAAGAGAGAAGUGAACCAGUGAAACACACGUUGUGGUAAAUUACCUGGUA | 1.37
GUCCUCUUUCACGUGCGCGUGAAAGAGAGAAGUGAACCAGUGAAACACACGUUGUGGCAUAUUACCUGGUA | 1.41
GUCCUCUUUCACGUGCGCGUGAAAGAGAGAAGUGAACCAGACACACACACGUUGUGGUAUAUUACCUGGUA | 0.0939
GUCCUCUUUCACGUGCGCGUGAAAGAGAGAAGUGAACCAGUGAAAGACACGUUGUGGUAUAUUACCUGGUA | 0.133
GUCCUCUUUCACGUGCGCGUGAAAGAGAGAAGUGAACCAGUGAAACACACGUUGUGGUAUCUUACCUGGUA | 0.39
GUCCUCUUUCACGUGCGCGUGAAAGAGAGAAGUGAACCAGAAAAACGCACGUUGUGGUAUAUUACCUGGUA | 0.162

Variant | self-cleavage
GUCCUCUUUCACGUGCGCGUGAAAGAGAGAAGUGAACCAGAACAACACACGUUGUGGUAUAUUACCUGGUA | 0.127
GUCCUCUUUCACGUGCGCGUGAAAGAGAGAAGUGAACCAGAAAAACACGCGUUGUGGUAUAUUACCUGGUA | 0.118
GUCCUCUUUCACGUGCGCGUGAAAGAGAGAAGUGAACCAGUGAAACACACGUUGUGGUAUAUUACUUGGUA | 0.46
GUCCUCUUUCACGUGCGCGUGAAAGAGAGAAGUGAACCAGGGAAACACACGUUAUGGUAUAUUACCUGGUA | 0.481
GUCCUCUUUCACGUGCGCGUGAAAGAGAGAAGUGAACCAGGGAAACACACGUUCUGGUAUAUUACCUGGUA | 0.672
GUCCUCUUUCACGUGCGCGUGAAAGAGAGAAGUGAACCAGGGAAACACACGGUGUGGUAUAUUACCUGGUA | 1.15
GUCCUCUUUCACGUGCGCGUGAAAGAGAGAAGUGAACCAGAAAAACACACGUUGUGGUAUAUUACCAGGUA | 0.219
GUCCUCUUUCACGUGCGCGUGAAAGAGAGAAGUGAACCAGAAAAACACACGUUGUGGUAUAUUACCGGGUA | 0.125
GUCCUCUUUCACGUGCGCGUGAAAGAGAGAAGUGAACCAGAAAAAUACACGUUGUGGUAUAUUACCUGGUA | 0.0972
GUCCUCUUUCACGUGCGCGUGAAAGAGAGAAGUGAACCAGGGAAACACACGUUGUGGUAGAUUACCUGGUA | 0.367
GUCCUCUUUCACGUGCGCGUGAAAGAGAGAAGUGAACCAGUGAAACACACGUUGUGGUAUAUUACCUGUUA | 0.348
GUCCUCUUUCACGUGCGCGUGAAAGAGAGAAGUGAACCAGUGAAACACACGUUGUGGUAUAUUACCUGAUA | 0.685
GUCCUCUUUCACGUGCGCGUGAAAGAGAGAAGUGAACCAGUGAAACACACGUUGUGGUAUAUUACCUGCUA | 0.55
GUCCUCUUUCACGUGCGCGUGAAAGAGAGAAGUGAACCAGAAAAACACACGUUGUGGUAUAUUACCUUGUA | 0.144
GUCCUCUUUCACGUGCGCGUGAAAGAGAGAAGUGAACCAGUGAAACACACGUUGUGGUAUACUACCUGGUA | 0.711
GUCCUCUUUCACGUGCGCGUGAAAGAGAGAAGUGAACCAGUGAAACACACGUUGUGGUAUAGUACCUGGUA | 0.202
GUCCUCUUUCACGUGCGCGUGAAAGAGAGAAGUGAACCAGUGAAACACACGUUGUGGUAUAAUACCUGGUA | 0.143
GUCCUCUUUCACGUGCGCGUGAAAGAGAGAAGUGAACCAGGGAAACAUACGUUGUGGUAUAUUACCUGGUA | 0.162
GUCCUCUUUCACGUGCGCGUGAAAGAGAGAAGUGAACCAGUGAAACACACGUUGUUGUAUAUUACCUGGUA | 0.125
